Our source for the Kd values is US20190248882A1 (ALLERGAN, published 2019).

The assay deals with T1, human ANG-2 (R&D Systems) (human, UniProt O15123 68-496, limits assumed, biotinylated in the Tie-2 competition ELISA (site not stated)).
T1 construct: Protein bought from R&D Systems; It was unlabelled in the Octet assay and biotinylated in the ELISA; also called angiopoietin-2; ANGPT2
T1 sequence: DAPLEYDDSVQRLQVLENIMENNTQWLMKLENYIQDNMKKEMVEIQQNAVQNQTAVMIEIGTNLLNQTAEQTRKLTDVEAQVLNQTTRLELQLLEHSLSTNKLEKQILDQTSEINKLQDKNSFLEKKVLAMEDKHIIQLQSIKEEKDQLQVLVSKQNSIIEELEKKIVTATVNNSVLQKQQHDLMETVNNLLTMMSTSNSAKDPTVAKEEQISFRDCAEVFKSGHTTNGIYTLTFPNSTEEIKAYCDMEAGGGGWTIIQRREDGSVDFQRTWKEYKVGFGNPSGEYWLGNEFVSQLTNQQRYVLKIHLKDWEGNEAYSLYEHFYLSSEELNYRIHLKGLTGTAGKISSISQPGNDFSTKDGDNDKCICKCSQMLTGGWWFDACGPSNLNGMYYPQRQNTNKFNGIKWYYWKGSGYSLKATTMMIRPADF
In words: BLI (Octet QKe); HCAb captured on anti-hIgG Fc tips, ANG-2 at 20 to 500 nM in solution. The method, then: Affinity measurements were performed using a fortéBIO OCTET® QK^e system equipped with anti-hlgG Fc capture (AHC) biosensor tips and strepavidin-coated biosensors (fortéBIO, Menlo Park, Calif.). For AHC affinity measurement, purified anti-ANG-2 HCAb A33A8 was tested for its binding capacity with AHC sensor tips. Tips were loaded using 20 μg/ml anti-ANG-2 A33A8 HCAb. Loading proceeded for 300 sec resulting in capture levels of between 1.8 and 2 nm. ANG-2 (R & D systems) antigen was prepared for binding analysis by dilution to concentrations of 20 to 500 nM in 1×PBS. Association was initiated and monitored for 200 sec, after which tips were transferred to 1×PBS buffer without Factor protein (Gibco, PBS pH 7.2), in order to monitor dissociation. Anti-ANG-2 A33A8 HCAb binding activity was then monitored in real time using bio-layer interferometry analysis. Antigen binding affinities were calculated for the tested ANG-2 based on the measured association (“Kassoc”) and dissociation (“Kdissoc”) constants. Data were processed and analyzed using the OCTET® data analysis software 6.4 (fortéBIO) (FIG. 4).
On the technique in general: In BLI a coated tip is dipped into the sample, and binding shifts an interference pattern.

B1: A33A8 human anti-ANG-2 HCAb (antibody, human IgG1, V domains shown)
VH: QVQLVESGGGLVQPGGSLRLSCAASGFTFSSYWMHWVRQAPGKGLVWVSRINSDGSSTSYADSVKGRFTISRDNAKNTLYLQMNSLRAEDTAVYYCAREGYSSGGQFDYWGQGTLVTVSS
notes: also called anti-ANG-2 HCAb A33A8; anti-ANG-2 A33A8 HCAb
As usually defined, the Kd is the constant that tells how readily two partners part at equilibrium. As to B1, the Kd was less than 1 pM.
